Measured values reported in US20060270832A1.

Molecular target: human noradrenaline transporter (hNET) (human), P23975
Experiment: cell-based or functional assay

human noradrenaline transporter (hNET) (human), P23975, sequence (P23975 whole entry): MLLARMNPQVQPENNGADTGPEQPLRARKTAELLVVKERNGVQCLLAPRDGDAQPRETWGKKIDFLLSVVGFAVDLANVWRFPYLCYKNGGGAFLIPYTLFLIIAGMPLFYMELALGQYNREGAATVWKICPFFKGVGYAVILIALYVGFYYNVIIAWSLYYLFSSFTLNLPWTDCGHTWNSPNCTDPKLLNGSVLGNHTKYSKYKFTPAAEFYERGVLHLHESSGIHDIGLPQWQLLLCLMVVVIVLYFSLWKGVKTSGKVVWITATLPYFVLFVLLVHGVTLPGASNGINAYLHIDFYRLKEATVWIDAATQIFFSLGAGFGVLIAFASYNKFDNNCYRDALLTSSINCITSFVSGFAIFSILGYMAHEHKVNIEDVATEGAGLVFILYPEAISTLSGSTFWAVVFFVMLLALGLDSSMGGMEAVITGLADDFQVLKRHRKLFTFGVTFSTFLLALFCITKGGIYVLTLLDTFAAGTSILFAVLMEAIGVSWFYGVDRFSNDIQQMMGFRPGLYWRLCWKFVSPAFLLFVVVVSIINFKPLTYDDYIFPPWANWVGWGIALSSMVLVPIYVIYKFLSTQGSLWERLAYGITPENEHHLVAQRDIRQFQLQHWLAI

| Binder | Av IC50, inhibition of NA uptake via hNET (log M (unit not given)) |
| --- | --- |
| GYKLGCCGYKLCC (modifications not checked) [SEQ ID NO. 99] | -6.99 |
| WKDLCCGYKLCHPC (modifications not checked) [SEQ ID NO. 85] | -7.05 |
